Test results reported in US20100015650.

Molecular target: T1, BRB1 tyrosine kinase substrate peptide
T1 chain: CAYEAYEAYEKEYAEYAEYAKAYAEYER

B1: JAK2 (protein)
chain: RIGALGFSGAFEDRDPTQFEERHLKFLQQLGKGNFGSVEMCRYDPLQDNTGEVVAVKKLQHSTEEHLRDFEREIEILKSLQHDNIVKYKGVCYSAGRRNLKLIMEYLPYGSLRDYLQKHKERIDHIKLLQYTSQICKGMEYLGTKRYIHRDLATRNILVENENRVKIGDFGLTKVLPQDKEYYKVKEPGESPIFWYAPESLTESKFSVASDVWSFGVVLYELFTYIEKSKSPPAEFMRMIGNDKQGQMIVFHLIELLKNNGRLPRPDGCPDEIYMIMTECWNNNVNQRPSFRDLALRVDQIRDNMAG
Signal to Noise Ratio with BRB1 Peptide (TR-FRET kinase assay; kinase 1 nM): 35.5

B2: CTK (protein)
chain: MAGRGSLVSWRAFHGCDSAEELPRVSPRFLRAWHPPPVSARMPTRRWAPGTQCITKCEHTRPKPGELAFRKGDVVTILEACENKSWYRVKHHTSGQEGLLAAGALREREALSADPKLSLMPWFHGKISGQEAVQQLQPPEDGLFLVRESARHPGDYVLCVSFGRDVIHYRVLHRDGHLTIDEAVFFCNLMDMVEHYSKDKGAICTKLVRPKRKHGTKSAEEELARAGWLLNLQHLTLGAQIGEGEFGAVLQGEYLGQKVAVKNIKCDVTAQAFLDETAVMTKMQHENLVRLLGVILHQGLYIVMEHVSKGNLVNFLRTRGRALVNTAQLLQFSLHVAEGMEYLESKKLVHRDLAARNILVSEDLVAKVSDFGLAKAERKGLDSSRLPVKWTAPEALKHGKFTSKSDVWSFGVLLWEVFSYGRAPYPKMSLKEVSEAVEKGYRMEPPEGCPGPVHVLMSSCWEAEPARRPPFRKLAEKLARELRSAGAPASVSGQDADGSTSPRSQEP
Signal to Noise Ratio with BRB1 Peptide (TR-FRET kinase assay; kinase 20 nM): 2.5

B3: FRK (protein)
chain: MSNICQRLWEYLEPYLPCLSTEADKSTVIENPGALCSPQSQRHGHYFVALFDYQARTAEDLSFRAGDKLQVLDTLHEGWWFARHLEKRRDGSSQQLQGYIPSNYVAEDRSLQAEPWFFGAIGRSDAEKQLLYSENKTGSFLIRESESQKGEFSLSVLDGAVVKHYRIKRLDEGGFFLTRRRIFSTLNEFVSHYTKTSDGLCVKLGKPCLKIQVPAPFDLSYKTVDQWEIDRNSIQLLKRLGSGQFGEVWEGLWNNTTPVAVKTLKPGSMDPNDFLREAQIMKNLRHPKLIQLYAVCTLEDPIYIITELMRHGSLQEYLQNDTGSKIHLTQQVDMAAQVASGMAYLESRNYIHRDLAARNVLVGEHNIYKVADFGLARVFKVDNEDIYESRHEIKLPVKWTAPEAIRSNKFSIKSDVWSFGILLYEIITYGKMPYSGMTGAQVIQMLAQNYRLPQPSNCPQQFYNIMLECWNAEPKERPTFETLRWKLEDYFETDSSYSDANNFIR
Signal to Noise ratio with BRB1 Peptide (TR-FRET kinase assay; kinase 0.5 nM): 9.7

B4: FAK (protein)
chain: LANSEKQGMRTHAVSVSETDDYAEIIDEEDTYTMPSTRDYEIQRERIELGRCIGEGQFGDVHQGIYMSPENPALAVAIKTCKNCTSDSVREKFLQEALTMRQFDHPHIVKLIGVITENPVWIIMELCTLGELRSFLQVRKYSLDLASLILYAYQLSTALAYLESKRFVHRDIAARNVLVSSNDCVKLGDFGLSRYMEDSTYYKASKGKLPIKWMAPESINFRRFTSASDVWMFGVCMWEILMHGVKPFQGVKNNDVIGRIENGERLPMPPNCPPTLYSLMTKCWAYDPSRRPRFTELKAQLSTILEEEKAQQEERMRMESRRQATVSWDSGGSDEAPPKPSRPGYPSPRSSEGFYPSPQHMVQTNHYQVSGYPGSHGITAMAGSIYPGQASLLDQTDSWNHRPQEIAMWQPNVEDSTVLDLRGIGQVLPTHLMEERLIRQQQEMEEDQRWLEKEERFLKPDVRLSRGSIDREDGSLQGPIGNQHIYQPVGKPDPAAPPKKPPRPGAPGHLGSLASLSSPADSYNEGVKLQPQEISPPPTANLDRSNDKVYENVTGLVKAVIEMSSKIQPAPPEEYVPMVKEVGLALRTLLATVDETIPLLPASTHREIEMAQKLLNSDLGELINKMKLAQQYVMTSLQQEYKKQMLTAAHALAVDAKNLLDVIDQARLKMLGQTRPH
Signal to Noise Ratio with BRB1 Peptide (TR-FRET kinase assay; kinase 3 nM): 1.7

B5: FER (protein)
chain: KSGVVLLNPIPKDKKWILSHEDVILGELLGKGNFGEVYKGTLKDKTSVAVKTCKEDLPQELKIKFLQEAKILKQYDHPNIVKLIGVCTQRQPVYIIMELVSGGDFLTFLRRKKDELKLKQLVKFSLDAAAGMLYLESKNCIHRDLAARNCLVGENNVLKISDFGMSRQEDGGVYSSSGLKQIPIKWTAPEALNYGRYSSESDVWSFGILLWETFSLGVCPYPGMTNQQAREQVERGYRMSAPQHCPEDISKIMMKCWDYKPENRPKFSELQKELTIIKRKLT
Signal to Noise ratio with BRB1 Peptide (TR-FRET kinase assay; kinase 0.25 nM): 31

B6: ITK (protein)
chain: NNFILLEEQLIKKSQQKRRTSPSNFKVRFFVLTKASLAYFEDRHGKKRTLKGSIELSRIKCVEIVKSDISIPCHYKYPFQVVHDNYLLYVFAPDRESRQRWVLALKEETRNNNSLVPKYHPNFWMDGKWRCCSQLEKLATGCAQYDPTKNASKKPLPPTPEDNRRPLWEPEETVVIALYDYQTNDPQELALRRNEEYCLLDSSEIHWWRVQDRNGHEGYVPSSYLVEKSPNNLETYEWYNKSISRDKAEKLLLDTGKEGAFMVRDSRTAGTYTVSVFTKAVVSENNPCIKHYHIKETNDNPKRYYVAEKYVFDSIPLLINYHQHNGGGLVTRLRYPVCFGRQKAPVTAGLRYGKWVIDPSELTFVQEIGSGQFGLVHLGYWLNKDKVAIKTIREGAMSEEDFIEEAEVMMKLSHPKLVQLYGVCLEQAPICLVFEFMEHGCLSDYLRTQRGLFAAETLLGMCLDVCEGMAYLEEACVIHRDLAARNCLVGENQVIKVSDFGMTRFVLDDQYTSSTGTKFPVKWASPEVFSFSRYSSKSDVWSFGVLMWEVFSEGKIPYENRSNSEVVEDISTGFRLYKPRLASTHVYQIMNHCWKERPEDRPAFSRLLRQLAEIAESGL
Signal to Noise ratio with BRB1 Peptide (TR-FRET kinase assay; kinase 0.5 nM): 8.4

B7: FES (protein)
chain: MGFSSELCSPQGHGVLQQMQEAELRLLEGMRKWMAQRVKSDREYAGLLHHMSLQDSGGQSRAISPDSPISQSWAEITSQTEGLSRLLRQHAEDLNSGPLSKLSLLIRERQQLRKTYSEQWQQLQQELTKTHSQDIEKLKSQYRALARDSAQAKRKYQEASKDKDRDKAKDKYVRSLWKLFAHHNRYVLGVRAAQLHHQHHHQLLLPGLLRSLQDLHEEMACILKEILQEYLEISSLVQDEVVAIHREMAAAAARIQPEAEYQGFLRQYGSAPDVPPCVTFDESLLEEGEPLEPGELQLNELTVESVQHTLTSVTDELAVATEMVFRRQEMVTQLQQELRNEEENTHPRERVQLLGKRQVLQEALQGLQVALCSQAKLQAQQELLQTKLEHLGPGEPPPVLLLQDDRHSTSSSEQEREGGRTPTLEILKSHISGIFRPKFSLPPPLQLIPEVQKPLHEQLWYHGAIPRAEVAELLVHSGDFLVRESQGKQEYVLSVLWDGLPRHFIIQSLDNLYRLEGEGFPSIPLLIDHLLSTQQPLTKKSGVVLHRAVPKDKWVLNHEDLVLGEQIGRGNFGEVFSGRLRADNTLVAVKSCRETLPPDLKAKFLQEARILKQYSHPNIVRLIGVCTQKQPIYIVMELVQGGDFLTFLRTEGARLRVKTLLQMVGDAAAGMEYLESKCCIHRDLAARNCLVTEKNVLKISDFGMSREEADGVYAASGGLRQVPVKWTAPEALNYGRYSSESDVWSFGILLWETFSLGASPYPNLSNQQTREFVEKGGRLPCPELCPDAVFRLMEQCWAYEPGQRPSFSTIYQELQSIRKRHR
Signal to Noise Ratio with BRB1 Peptide (TR-FRET kinase assay; kinase 1 nM): 24.9

B8: JAK3 (protein)
chain: ALAPRDGLWNGAQLYACQDPTIFEERHLKYISQLGKGNFGSVELCRYDPLGDNTGALVAVKQLQHSGPDQQRDFQREIQILKALHSDFIVKYRGVSYGPGRQSLRLVMEYLPSGCLRDFLQRHRARLDASRLLLYSSQICKGMEYLGSRRCVHRDLAARNILVESEAHVKIADFGLAKLLPLDKDYYVVREPGQSPIFWYAPESLSDNIFSRQSDVWSFGVVLYELFTYCDKSCSPSAEFLRMMGCERDVPALCRLLELLEEGQRLPAPPACPAEVHELMKLCWAPSPQDRPSFSALGPQLDMLWSGSRGCETHAFTAHPEGKHHSLSFS
Signal to Noise ratio with BRB1 Peptide (TR-FRET kinase assay; kinase 0.5 nM): 16.1
